This note sets out measurements from patent publication US11919930B2, “Odorant receptor co-receptor” (Sumitomo Chemical Company, Limited, priority 2016, dated 2024).

In assay [1] the test system is odorant receptor AaOR8. Description: Aequorin luminescence measurement in HEK293FT cells co-expressing AaOR8 and a co-receptor, 1-octen-3-ol added. Type of assay: cell-based. The conditions noted are these: 1-octen-3-ol 10^-4 to 10^-10 M. The protocol:
HEK293FT cells (purchased from invitrogen, Inc.) were inoculated into 10-cm Petri dishes at a concentration of 3×10^6 cells/Petri dish, and the cells were cultured in DMEM medium containing 10% FBS (manufactured by Nacalai Tesque, Inc.) for about 24 hours under the conditions of 37° C. and 5% CO2. 3 μg of any one of the co-receptor expression plasmids produced, 1.5 μg of any one of the odorant receptor expression plasmids produced, and 8 μg of Aequorin expression plasmid were mixed with 12.5 μL of Plus reagent and 31.25 μL of LIPOFECTAMINE LTX (manufactured by Invitrogen, Inc.), and the mixture was maintained for 30 minutes. Subsequently this liquid mixture was transfected into the above-mentioned cells. After 4 hours from the initiation of transfection, the cells were inoculated onto a 96-well plate at a concentration of 9×10^4 cells/well, and the cells were cultured in DMEM medium containing 10% FBS (manufactured by Nacalai Tesque, Inc.) for about 24 hours under the conditions of 37° C. and 5% CO2. Thereby, transformed cells having a co-receptor expression plasmid, an odorant receptor expression plasmid, and an aequorin expression plasmid transiently incorporated therein were obtained.
Aequorin is activated when hound to a calcium ion, and oxidizes a substrate such as coelenterazine, thus emitting light. […] Therefore, whether an odorant receptor complex functions an ion channel as a result of addition of a substance to be detected, can be measured from the change in the amount of luminescence.
A culture fluid of the transformed cells was removed, and the medium was exchanged with Hanks-HEPES (20 mM, pH 7.4) including Assay buffer (0.5 μM coelenterazine h (manufactured by Promega Corporation) and 0.3% BSA. culture system was left to stand for another 4 hours at room temperature. Subsequently, a substance to be detected, which corresponded to an odorant receptor, was added to the cell culture using FLEXSTATION 3 (manufactured by Molecular Devices, LLC), and at the same time, the amount of luminescence of the cells was measured. As a control substance, the amount of luminescence in the cells to which dimethyl sulfoxide had been added was designated as 1, and the amount or luminescence of cells to which the substance to be detected was added was calculated as a relative value.
(§1) Cells into which: • an expression plasmid of odorant receptor AaOR8; • an expression plasmid of any one of co-receptor AaORCO or DmORCO, or various chimeric co-receptors Dm-AaORCO having different positions of recombination [Dm(NT-EC1)AaORCO, Dm(NT-TM3)AaOROC, Dm(NT-TM4)AaORCO, Dm(NT-TM5)AaORCO, or Dm(NT-TM6)AaORCO]; and • an aequorin expression plasmid had been incorporated were used, and the amount of luminescence was measured as explained above. 1-Octen-3-ol was used as a substance to be detected, and 1-octen-3-ol was added to the culture fluid at a concentration of 10^−4 M, 10^−5 M, 10^−6 M, 10^−7 M, 10^−8 M, 10^−9 M, or 10^−10 M. The results are presented in FIG. 1.
as §1, with “AmORCO” for “AaORCO”, “Dm-AmORCO” for “Dm-AaORCO”, “[Dm(NT-TM3)AmOROC, Dm(NT-TM4)AmORCO, Dm(NT-TM5)AmORCO,” for “[Dm(NT-EC1)AaORCO, Dm(NT-TM3)AaOROC, Dm(NT-TM4)AaORCO, Dm(NT-TM5)AaORCO,”, “Dm(NT-TM6)AmORCO];” for “Dm(NT-TM6)AaORCO];”, “2. […]” for “1.”

Assay [2] concerns odorant receptor DmOR47a. Description: Aequorin luminescence measurement in HEK293FT cells co-expressing DmOR47a and a co-receptor, pentyl acetate added. Type of assay: cell-based, Drosophila melanogaster. The conditions noted are these: pentyl acetate 10^-4 to 10^-7 M, compared to cells that expressed original DmORCO or AmORCO. Here is the method: (§2) HEK293FT cells (purchased from invitrogen, Inc.) were inoculated into 10-cm Petri dishes at a concentration of 3×10^6 cells/Petri dish, and the cells were cultured in DMEM medium containing 10% FBS (manufactured by Nacalai Tesque, Inc.) for about 24 hours under the conditions of 37° C. and 5% CO2. 3 μg of any one of the co-receptor expression plasmids produced, 1.5 μg of any one of the odorant receptor expression plasmids produced, and 8 μg of Aequorin expression plasmid were mixed with 12.5 μL of Plus reagent and 31.25 μL of LIPOFECTAMINE LTX (manufactured by Invitrogen, Inc.), and the mixture was maintained for 30 minutes. Subsequently this liquid mixture was transfected into the above-mentioned cells. […]
Chain of odorant receptor DmOR47a (as listed by the source, one chain of several): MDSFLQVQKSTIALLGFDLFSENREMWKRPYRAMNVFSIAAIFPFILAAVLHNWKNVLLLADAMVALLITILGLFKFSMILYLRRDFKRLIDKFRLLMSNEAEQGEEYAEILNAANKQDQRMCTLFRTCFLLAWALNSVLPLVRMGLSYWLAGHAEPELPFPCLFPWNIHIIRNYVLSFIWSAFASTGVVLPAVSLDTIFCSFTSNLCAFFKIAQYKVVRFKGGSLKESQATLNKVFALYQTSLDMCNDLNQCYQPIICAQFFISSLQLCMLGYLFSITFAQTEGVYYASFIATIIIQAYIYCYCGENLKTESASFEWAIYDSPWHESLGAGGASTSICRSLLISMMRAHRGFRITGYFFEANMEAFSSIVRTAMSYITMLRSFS
(§3) Aequorin is activated when hound to a calcium ion, and oxidizes a substrate such as coelenterazine, thus emitting light. […] Therefore, whether an odorant receptor complex functions an ion channel as a result of addition of a substance to be detected, can be measured from the change in the amount of luminescence. […]
Cells into which: • an expression plasmid of odorant receptor DmOR47a; • an expression plasmid of any one of co-receptor DmORCO or AmORCO, or chimeric co-receptor Dm(NT-TM4)AmORCO; and • an aequorin expression plasmid had been incorporated were used, and the amount of luminescence was measured as explained above. […]

Assay [3] deals with odorant receptor BmOR56. Kind of assay: Aequorin luminescence measurement in HEK293FT cells co-expressing BmOR56 and a co-receptor, cis-jasmone added. Type of assay: cell-based, Bombyx mori. The settings on record: cis-jasmone 10^-5 to 10^-11 M, compared to cells that expressed BmORCO and BmOR56. The protocol:
as §2, §3
Cells into which: • an expression plasmid of odorant receptor BmOR56; • an expression plasmid of any one of co-receptor BmORCO or chimeric co-receptor Dm(NT-TM4)AmORCO; and • an aequorin expression plasmid had been incorporated were used, and the amount of luminescence was measured as explained above. […]

Chain of odorant receptor AaOR8 (as listed by the source): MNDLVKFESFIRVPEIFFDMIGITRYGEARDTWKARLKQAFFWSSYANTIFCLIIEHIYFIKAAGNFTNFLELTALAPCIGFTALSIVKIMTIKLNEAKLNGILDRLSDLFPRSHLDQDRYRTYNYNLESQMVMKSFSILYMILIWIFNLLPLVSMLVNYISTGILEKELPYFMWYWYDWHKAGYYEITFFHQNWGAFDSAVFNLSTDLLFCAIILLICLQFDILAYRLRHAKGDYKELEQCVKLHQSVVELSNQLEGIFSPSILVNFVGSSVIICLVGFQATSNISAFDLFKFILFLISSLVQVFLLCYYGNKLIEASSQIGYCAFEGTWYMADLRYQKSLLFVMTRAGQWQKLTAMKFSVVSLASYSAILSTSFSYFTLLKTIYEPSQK
Chain of odorant receptor BmOR56 (as listed by the source, one chain of several): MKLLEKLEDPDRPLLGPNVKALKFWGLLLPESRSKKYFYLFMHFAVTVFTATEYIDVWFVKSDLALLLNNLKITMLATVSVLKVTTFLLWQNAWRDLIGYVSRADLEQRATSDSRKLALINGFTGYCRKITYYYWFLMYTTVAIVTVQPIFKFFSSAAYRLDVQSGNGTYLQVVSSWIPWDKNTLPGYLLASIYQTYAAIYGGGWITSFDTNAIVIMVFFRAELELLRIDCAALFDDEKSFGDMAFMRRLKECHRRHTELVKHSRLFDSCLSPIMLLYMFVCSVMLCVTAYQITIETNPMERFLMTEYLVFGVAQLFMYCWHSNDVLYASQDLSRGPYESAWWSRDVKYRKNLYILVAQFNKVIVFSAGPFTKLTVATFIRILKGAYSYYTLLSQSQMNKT

B1: Ag(NT-TM4)AmORCO: chimeric co-receptor: NT to TM4 from Anopheles co-receptor, IC2 to C-terminal domain from Apis co-receptor; SEQ ID NO:114 (protein)
chain: MQVQPTKYVGLVADLMPNIRLMQASGHFLFRYVTGPILIRKVYSWWTLAMVLIQFFAILGNLATNADDVNELTANTITTLFFTHSVTKFIYFAVNSENFYRTLAIWNQTNTHPLFAESDARYHSIALAKMRKLLVLVMATTVLSVVAWVTITFFGESVKTVLDKATNETYTVDIPRLPIKSWYPWNAMSGPAYIFSFIYQIYFLLFSMVQSNLADVMFCSWLLLACEQLQHLKNIMKPLMEFSATLDTVVPNSGELFKAGSAEQPKEQEPLPPVTPPQGENMLDMDLRGIYSNRTDFTTTFRPTAGMTFNGGVGPNGLTKKQEMLVRSAIKYWVERHKHIVRLVTAIGDAYGVALLLHMLTTTITLTLLAYQATKIHAVDTYAASVVGYLLYSLGQVFMLCIFGNRLIEESSSVMEAAYSCHWYDGSEEAKTFVQIVCQQCQKAMSISGAKFFTVSLDLFASVLGAMVTYFMVLVQLK
For the molecule B1, the “concentration of 1-octan-3-ol at which cells responded” value in assay [1] (compared to cells that expressed original AaORCO or AmORCO) is “responded to 1-octan-3-ol at a lower concentration”.

B2: Dm(NT-TM4)AmORCO: chimeric co-receptor: NT to TM4 from Drosophila co-receptor, IC2 to C-terminal domain from Apis co-receptor; SEQ ID NO:100 (protein)
chain: MTTSMQPSKYTGLVADLMPNIRAMKYSGLFMHNFTGGSAFMKKVYSSVHLVFLLMQFTFILVNMALNAEEVNELSGNTITTLFFTHCITKFIYLAVNQKNFYRTLNIWNQVNTHPLFAESDARYHSIALAKMRKLFFLVMLTTVASATAWTTITFFGDSVKMVVDHETNSSIPVEIPRLPIKSFYPWNASHGMFYMISFAFQIYYVLFSMIHSNLCDVMFCSWLIFACEQLQHLKNIMKPLMEFSATLDTVVPNSGELFKAGSAEQPKEQEPLPPVTPPQGENMLDMDLRGIYSNRTDFTTTFRPTAGMTFNGGVGPNGLTKKQEMLVRSAIKYWVERHKHIVRLVTAIGDAYGVALLLHMLTTTITLTLLAYQATKIHAVDTYAASVVGYLLYSLGQVFMLCIFGNRLIEESSSVMEAAYSCHWYDGSEEAKTFVQIVCQQCQKAMSISGAKFFTVSLDLFASVLGAMVTYFMVLVQLK
As for B2, in assay [1] (compared to cells that expressed original AmORCO or DmORCO), the “increase in the amount of luminescence caused by addition of 1-octen-3-ol” value is reported as “the increase in the amount of luminescence caused by addition of 1-octen-3-ol was larger”. In addition, the “response (relative amount of luminescence) to pentyl acetate” value in assay [2] is reported as “responded more strongly to pentyl acetate”. Further, the “response (relative amount of luminescence) to cis-jasmone” value in assay [3] is “responded more strongly to cis-jasmone”.
